The values that follow come from patent US20130123472A1 (GlaxoSmithKline, published 2013).

Residue numbers refer to the chain shown, from its start.

T1: MAGE-A9 (human, UniProt P43362 1-315)
T1 construct: constructs not described
T1 sequence: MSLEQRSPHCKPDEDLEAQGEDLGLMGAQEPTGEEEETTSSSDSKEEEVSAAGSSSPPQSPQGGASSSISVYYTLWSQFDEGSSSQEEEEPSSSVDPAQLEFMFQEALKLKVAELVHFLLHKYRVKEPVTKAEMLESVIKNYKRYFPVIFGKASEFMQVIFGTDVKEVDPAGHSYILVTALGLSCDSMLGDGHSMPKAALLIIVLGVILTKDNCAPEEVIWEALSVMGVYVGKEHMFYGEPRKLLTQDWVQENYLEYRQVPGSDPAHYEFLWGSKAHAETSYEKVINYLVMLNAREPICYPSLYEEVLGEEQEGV

T2: MAGE-A8 (human, UniProt P43361 1-318)
T2 construct: In lysates of transiently transfected HEK 293 cells; construct not described
T2 sequence: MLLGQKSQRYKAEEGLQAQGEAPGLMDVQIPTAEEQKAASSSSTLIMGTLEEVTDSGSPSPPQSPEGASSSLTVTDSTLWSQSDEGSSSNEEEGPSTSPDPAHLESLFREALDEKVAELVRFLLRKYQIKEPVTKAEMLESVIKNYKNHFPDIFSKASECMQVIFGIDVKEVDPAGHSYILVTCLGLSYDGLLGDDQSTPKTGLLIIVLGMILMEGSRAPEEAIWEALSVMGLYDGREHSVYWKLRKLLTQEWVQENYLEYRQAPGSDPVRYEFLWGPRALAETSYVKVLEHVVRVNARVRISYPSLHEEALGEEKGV

T3: MAGE-A1 (human, UniProt P43355 1-309)
T3 construct: In lysates of transiently transfected HEK 293 cells; construct not described
T3 sequence: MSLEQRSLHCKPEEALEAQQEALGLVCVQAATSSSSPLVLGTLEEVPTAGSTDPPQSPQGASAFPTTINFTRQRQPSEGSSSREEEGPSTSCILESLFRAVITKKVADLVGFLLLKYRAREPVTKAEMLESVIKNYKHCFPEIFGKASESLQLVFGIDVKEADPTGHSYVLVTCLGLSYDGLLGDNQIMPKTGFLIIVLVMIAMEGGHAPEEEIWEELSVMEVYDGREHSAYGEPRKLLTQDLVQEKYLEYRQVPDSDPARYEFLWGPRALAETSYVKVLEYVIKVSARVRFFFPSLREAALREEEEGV

T4: MAGE-A11 (human, UniProt P43364 1-429)
T4 construct: In lysates of transiently transfected HEK 293 cells; construct not described
T4 sequence: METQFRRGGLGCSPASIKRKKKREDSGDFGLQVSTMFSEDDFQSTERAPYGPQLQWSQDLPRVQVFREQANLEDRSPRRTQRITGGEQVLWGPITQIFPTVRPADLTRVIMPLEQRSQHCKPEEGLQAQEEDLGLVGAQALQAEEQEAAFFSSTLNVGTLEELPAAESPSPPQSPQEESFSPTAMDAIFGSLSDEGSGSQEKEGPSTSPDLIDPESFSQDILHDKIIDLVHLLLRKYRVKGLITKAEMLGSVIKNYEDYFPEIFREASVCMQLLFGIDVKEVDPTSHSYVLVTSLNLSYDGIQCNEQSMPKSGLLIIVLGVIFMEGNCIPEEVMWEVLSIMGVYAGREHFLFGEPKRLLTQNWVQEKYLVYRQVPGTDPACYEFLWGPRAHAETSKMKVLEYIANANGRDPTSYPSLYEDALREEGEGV

T5: MAGE-A4 (human, UniProt P43358 1-317)
T5 construct: In lysates of transiently transfected HEK 293 cells; construct not described
T5 sequence: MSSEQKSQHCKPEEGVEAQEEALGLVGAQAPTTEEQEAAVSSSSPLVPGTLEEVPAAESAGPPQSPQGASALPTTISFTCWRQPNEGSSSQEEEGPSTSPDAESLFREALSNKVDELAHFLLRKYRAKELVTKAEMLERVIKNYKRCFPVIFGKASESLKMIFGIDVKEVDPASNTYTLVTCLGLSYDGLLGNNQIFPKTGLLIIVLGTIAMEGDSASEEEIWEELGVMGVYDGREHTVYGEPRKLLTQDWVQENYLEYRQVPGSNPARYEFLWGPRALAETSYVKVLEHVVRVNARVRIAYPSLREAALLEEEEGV

B1: mAb 1B1 (antibody, IgG1, V domains shown)
VH: DVQLQESGPGLVKPSQSLSLTCTVTGYSITSDYVWNWIRQFPGNKLEWMGYIGHSGRTSYNPSLKSRISITRDTSKNQFFLQLNSVTSEDTATYYCARGGNNGFAYWGQGTLVTVSA
VL: DIVMTQSPSSLTVTAGEKVTMSCKSSQSLLNSGNQKNYLTWYQQKPGQPPKLLIYWTSTRDSGVPDRFTGSGSGTDFTLTISSVQAEDLAVYYCQNDYSYPPTFGGGTKLEIKR
notes: Tested as hybridoma supernatant; also called clone 1B1; hybridoma 1B1
B2: mAb 16G7 (antibody, IgG1, V domains shown)
VH: EVMVVESGGGLVKPGGSLKLSCAASGFTFRTNAMSWVRQTPEKRLEWVATITSGGGSTYYPVSVKGRFTISRDNAKNTLYLQMSSLRSEDTAIYYCVRQDYFDYWGQGTFVIVSS
VL: QAVVTQESALTTSPGETVTLTCRSSTGAVTSTNYANWVQEKPDHLFTGLIGGTNNRAPGVPARFSGSLIGDKAALTITGAQTEDEAIYFCALWYSNHWVFGGGTKLTVL
notes: also called clone 16G7; hybridoma 16G7
B3: mAb 23D2 (antibody, IgG2a, V domains shown)
VH: DVKLVESGGGLVKPGGSLKVSCVASGFTFSSYTMSWVRQTPEKRLEWVATITSGGGSSYYPDSVKGRFTISRDNAKNTLYLQITSLKSEDTAMYYCTSGGGVLLRLPLFAYWGQGTTLTVSS
VL: B2 VL with S31A, T32S, L45S, T53I, S95N
modifications: In the FIG. 8 ELISA and the FIG. 9 competition assay the antibody was biotinylated; the sites are not stated and the letters do not carry them.
notes: also called clone 23D2; hybridoma 23D2

The target in the first assay is T1, MAGE-A9. Kind of assay: Western blot, lysates of transiently transfected HEK 293 cells. Here is the method: (§1) The specificity of mAbs 1B1, 16G7 and 23D2 were tested in Western blot analyses on HEK 293 cells transiently transfected with plasmids encoding MAGE-A1, A2, A3, A4, A6, A8, A9, A10, All and A12. Non-transfected cells were used as a control. Between 25 and 85 μg of lysates of transfected or non-transfected cells were electrophoresed on SDS-PAGE and transferred onto nitrocellulose. Immunodetection was performed by incubation of the blots with each of mAbs 1B1, 16G7 and 23D2. Immunodetection was additionally performed using a mixture of mAbs that together recognized all of the MAGE-A antigens expressed by the transfectants (see Table 6 for mAbs in this mixture).
(§2) Method: mini-gels were prepared with 10% acrylamide in the running gel and 4.5% acrylamide in the stacking gel. Samples were prepared in 40 μl of loading buffer (reducing conditions), the gel was loaded and migrated at 100V in the stacking gel and 200 V in the running gel. Proteins were transferred onto nitrocellulose at 100 mA during one hour at 4° C., and the membrane incubated in TBS-5% skimmed milk, and incubated with antibody diluted in TBS-1% skim milk for one hour at room temperature.
For orientation: In western blotting, separated proteins are transferred to a membrane and probed.
With B1, the binding result is “no binding (tested: Between 25 and 85 µg of lysates)”.

As to B2, the binding result was “no binding (tested: Between 25 and 85 µg of lysates)”.

With B3, the binding result was “no binding (tested: Between 25 and 85 µg of lysates)”.

In a further assay the target is T6, MAGE-A10 (human, UniProt P43363 1-369).
T6 construct: In lysates of transiently transfected HEK 293 cells; construct not described
T6 sequence (P43363 whole entry R166K/V234I): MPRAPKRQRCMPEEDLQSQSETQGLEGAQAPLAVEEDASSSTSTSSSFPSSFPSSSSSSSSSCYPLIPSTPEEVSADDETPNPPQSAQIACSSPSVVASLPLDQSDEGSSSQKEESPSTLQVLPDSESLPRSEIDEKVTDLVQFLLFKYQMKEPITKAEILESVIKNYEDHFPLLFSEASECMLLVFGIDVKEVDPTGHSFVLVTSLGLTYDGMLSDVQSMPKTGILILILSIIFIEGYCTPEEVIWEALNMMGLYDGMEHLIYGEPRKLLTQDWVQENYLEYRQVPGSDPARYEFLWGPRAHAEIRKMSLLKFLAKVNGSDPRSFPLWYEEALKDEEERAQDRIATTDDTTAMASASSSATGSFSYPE
The description is as above. Here is the method: as §1, §2
As to B1, the binding result was “no binding (tested: Between 25 and 85 µg of lysates)”.

B2: the binding result is “no binding (tested: Between 25 and 85 µg of lysates)”.

Consider B3, for which the binding result was “no binding (tested: Between 25 and 85 µg of lysates)”.

The next assay deals with T2, MAGE-A8. The description is as above. How it is done: as §1, §2
As for B1, the binding result was “no binding (tested: Between 25 and 85 µg of lysates)”.

Consider B2, for which the binding result is “no binding (tested: Between 25 and 85 µg of lysates)”.

With B3, the binding result was “no binding (tested: Between 25 and 85 µg of lysates)”.

The target in a further assay is T3, MAGE-A1. Described as above. How it is done:
as §1, §2
Consider B1, for which the binding result is “no binding (tested: Between 25 and 85 µg of lysates)”.

Regarding B2, the binding result is “no binding (tested: Between 25 and 85 µg of lysates)”.

With B3, the binding result is “no binding (tested: Between 25 and 85 µg of lysates)”.

In another assay the target is T7, MAGE-A6 (human, UniProt P43360 1-314).
T7 construct: In lysates of transiently transfected HEK 293 cells (Western blot); also endogenous MAGE-A6 in K562 lysate; Construct not described
T7 sequence (P43360 whole entry Y283N): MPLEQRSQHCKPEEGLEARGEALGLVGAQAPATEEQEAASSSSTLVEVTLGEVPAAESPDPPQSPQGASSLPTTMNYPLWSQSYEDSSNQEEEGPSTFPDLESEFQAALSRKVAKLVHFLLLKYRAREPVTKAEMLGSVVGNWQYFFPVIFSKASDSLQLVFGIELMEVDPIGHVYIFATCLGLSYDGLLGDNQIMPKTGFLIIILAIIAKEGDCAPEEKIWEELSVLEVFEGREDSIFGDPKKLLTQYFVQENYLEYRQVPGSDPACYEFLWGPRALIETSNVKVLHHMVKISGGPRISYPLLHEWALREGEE
The description is as above. Here is the method:
as §1, §2
B1: the binding result is “binds”.

In the case of B2, the binding result is recorded as “binds”.

B3: the binding result was “binds”.

Another assay addresses T4, MAGE-A11. The description is as above. How it is done:
as §1, §2
As for B1, the binding result was “no binding (tested: Between 25 and 85 µg of lysates)”.

B2: the binding result is “no binding (tested: Between 25 and 85 µg of lysates)”.

B3: the binding result is “no binding (tested: Between 25 and 85 µg of lysates)”.

The target in a further assay is T5, MAGE-A4. Described as above. How it is done: as §1, §2
Take B1: the binding result is “no binding (tested: Between 25 and 85 µg of lysates)”.

B2: the binding result is “no binding (tested: Between 25 and 85 µg of lysates)”.

For the molecule B3, the binding result is “no binding (tested: Between 25 and 85 µg of lysates)”.
